The record followed here is patent US20240317840A1 (Novartis, published 2024).

A word on the IC50: it is the concentration that inhibits the measured activity by half. High values mean a need for much substance, low ones inhibition by little substance. The term Kd denotes the equilibrium constant for the complex coming apart. Read a high Kd as a looser complex. One may read the EC50 (read off the curve) as the concentration giving half of the maximal effect.

Like-named read-outs stand apart in the source and are kept apart here. Bounds are passed on as bounds.

Assay [1] has as its target HBsAg of HBV genotype D, serotype ayw (Hepatitis B virus). Description: cell-based or functional assay.
The target in assay [2] is T1, HBsAg of HBV genotype A (AY934772) (Hepatitis B virus).
T1 construct: captured from supernatant by horse polyclonal anti-HBsAg
In words: sandwich ELISA, captured HBsAg from culture supernatant. For orientation: An ELISA detects its analyte on a solid surface through an enzyme-linked reagent.
Experimental: (§1) The binding of anti-HBsAg antibodies to the 4 major genotypes (A-D) of HBV were analyzed by sandwich ELISA.

Assay [3] concerns the target HBsAg of HBV genotype B (AF 121245) (Hepatitis B virus). Described as above.
Experimental: as §1
Assay [4] has as its target HBsAg of HBV genotype C (DQ087960) (Hepatitis B virus). Described as above.
Experimental: as §1
In assay [5] the target is HBsAg clinical mutation D144A (Hepatitis B virus). Description: sandwich ELISA, captured mutant HBsAg from culture supernatant.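 Further: Anti-HBsAg antibodies tested for binding to mutant HBsAg secreted by stably transfected cell lines, supernatant incubated 1 h on antibody-coated plates.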
Experimental: (§2) The binding of anti-HBsAg antibodies to 4 well characterized vaccine and/or HBsAg clinical mutations of HBsAg (G145R, D144A, T126S, M133L) were analyzed by sandwich ELISA. […] Supernatant collected from HBsAg cell-culture derived clinical mutation stables (G145R, D144A, T126S, M133L) was allowed to bind antibody coated plates for 1 hour.
Assay [6] concerns the target HBsAg clinical mutation T126S (Hepatitis B virus). Described as above.
Experimental: as §2
Assay [7] has as its target HBsAg clinical mutation M133L (Hepatitis B virus). The assay is described as above.
Experimental: as §2
Assay [8] addresses T2, HBsAg AD serotype (Hepatitis B virus).
T2 construct: also called HBsAg serotype AD
In words: SPR Biacore T200, HBsAg particles immobilized, antibody as analyte, 1:1 fit.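 Further: Anti-HBsAg antibodies assessed for binding against both major HBsAg serotypes, AY and AD.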
Experimental: (§3) Binding affinity interaction (KD) of the anti-HBsAg antibodies with the two major serotypes of HBsAg, AY and AD, was determined utilizing surface plasma resonance (SPR) technology.

For assay [9], the target named is T3, HBsAg AY serotype (Hepatitis B virus).
T3 construct: also called HBsAg serotype AY
Described as above.
Experimental: as §3

Assay [10] has as its target HBsAg clinical mutation T126S (Hepatitis B virus). In words: sandwich ELISA, mutant HBsAg from cell supernatant captured on horse polyclonal anti-HBsAg, antibody titrated, absorbance 450 nm.
Assay [11] addresses HBsAg clinical mutation M133L (Hepatitis B virus). Described as above.
The target of assay [12] is HBsAg clinical mutation G145R (Hepatitis B virus). In words: sandwich ELISA, captured mutant HBsAg from culture supernatant.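 Further: Anti-HBsAg antibodies tested for binding to mutant HBsAg secreted by stably transfected cell lines, supernatant incubated 1 h on antibody-coated plates.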
Experimental: as §2
In assay [13] the target is HBsAg clinical mutation T126S (Hepatitis B virus). Description: sandwich ELISA, mutant HBsAg from cell supernatant captured on horse polyclonal anti-HBsAg, antibody titrated, absorbance 450 nm. The source holds these as a separate data set.
Assay [14] deals with HBsAg clinical mutation M133L (Hepatitis B virus). The description is as above. The source holds these as a separate data set.
In assay [15] the target is HBsAg clinical mutation T126S (Hepatitis B virus). The assay is described as above. The source holds these as a separate data set.
For assay [16], the target named is HBsAg clinical mutation M133L (Hepatitis B virus). The description is as above. This is another data set of the same source.
In assay [17] the target is HBsAg clinical mutation D144A (Hepatitis B virus). The description is as above.
Assay [18] concerns the target HBsAg clinical mutation T126S (Hepatitis B virus). Described as above. This is another data set of the same source.
Assay [19] concerns the target HBsAg clinical mutation M133L (Hepatitis B virus). The description is as above. This is another data set of the same source.
Assay [20] has as its target T2, HBsAg AD serotype. In words: SPR epitope binning; competitor (1st, saturating Ab): HBC34.
Experimental: (§4) Epitope binning of anti-HBsAg antibodies with the two major serotypes of HBsAg, AY and AD, was performed utilizing surface plasmon resonance (SPR) technology. […] Each pair of antibodies was tested for blocking one another's binding to their epitope on the antigen by subsequently applying one antibody as first (saturating) followed by the other as second (competing) antibody and vice versa. Saturating antibodies were applied at 500 nM for 120s. Competing antibodies utilized the same conditions but were supplemented with the first antibody at 500 nM to maintain saturation. Binding signals were corrected by subtracting the reference cell signal. Specific binding of the competing antibody in presence of the saturating antibody was calculated by subtracting a saturating antibody plus buffer reference signal. All signals were normalized to 100 RU of immobilized ligand. The specific binding signal obtained from the application as competing antibody was expressed as percentage of the binding signal obtained from the application of the same antibody as saturating (first) antibody, the signal of which was regarded 100% binding.
The target in assay [21] is T3, HBsAg AY serotype. The assay is described as above.
Experimental: as §4
In assay [22] the target is T2, HBsAg AD serotype. In words: SPR epitope binning; competitor (1st, saturating Ab): CR8087.
Experimental: as §4
Assay [23] has as its target T3, HBsAg AY serotype. The description is as above.
Experimental: as §4
The target in assay [24] is HBsAg clinical mutation T126S (Hepatitis B virus). In words: sandwich ELISA, mutant HBsAg from cell supernatant captured on horse polyclonal anti-HBsAg, antibody titrated, absorbance 450 nm. The source holds these as a separate data set.
For assay [25], the target named is HBsAg clinical mutation M133L (Hepatitis B virus). The description is as above. This is another data set of the same source.
The target of assay [26] is HBsAg clinical mutation T126S (Hepatitis B virus). The assay is described as above. The source holds these as a separate data set.
Assay [27] deals with HBsAg clinical mutation M133L (Hepatitis B virus). The assay is described as above. The source holds these as a separate data set.

B1: NOV3837 (antibody, human IgG1, kappa, V domains shown)
VH: QVQLQESGGRLVRPGGSLRLSCAASGFIFTDYYMTWIRQAPGKGPEWIAFITSGGETTYYADSVKGRFTISRDNAKKSLFLQMYSLRADDTAVYYCVRAHFDGYQYDTRGDFTYYFDNWGLGTLVSVSS
VL: EIVMTQSPATLSVSPGERVTLSCRASQSVSSSLAWYQQKPGRAPRLLIYGASTRATGVPARFSGGGSGTDFTLTISSLQSEDFAVYYCHQYINWPPGDTFGQGTRLDIKR
notes: Full human IgG1 (kappa) expressed in CHO cells
For the molecule B1, in assay [1], the “Virus neutralization EC50” value was 0.049 nM. For the same molecule, the IC50 in [2] was 0.093 nM; in [3], 0.069 nM; in assay [4], 0.17 nM; in assay [5], 0.27 nM; in assay [6], 0.03 nM; in assay [7], 0.035 nM. For the same molecule, the Kd came out at 0.67 nM with HBsAg AD serotype [8] and 0.75 nM in the assay with HBsAg AY serotype [9]. Further, the “EC50 (read off the curve)” value in assay [10] is ~0.03 nM; in [11], ~0.04 nM.

B2: NOV3838 (antibody, human IgG1, kappa, V domains shown)
VH: QVQLQESGGRLVRPGGSLRLSCAASGFIFTDYYMTWIRQAPGKGPEWIAFITSGGETTYYADSVKGRFTISRDNAKKSLFLQMYSLRADDTAVYYCVRAHFDLYQYDTRGDFTYYFDNWGLGTLVSVSS
VL: EIVMTQSPATLSVSPGERVTLSCRASQSVSSSLAWYQQKPGRAPRLLIYGASTRATGVPARFSGGGSGTDFTLTISSLQSEDFAVYYCHQYINWPPGDTFGQGTRLDIKR
notes: as for B1
On to B2, for which, in [1], the “Virus neutralization EC50” value is 0.12 nM. The IC50 in assay [2] stood at 0.2 nM; in [3] it was 0.05 nM; in [4] it was 0.21 nM; in assay [12] it was 5.2 nM; in assay [5], 6.1 nM; in [6], 0.11 nM. This molecule returned an IC50 in assay [7] of 0.15 nM. The Kd with HBsAg AD serotype [8] is 0.68 nM; with HBsAg AY serotype [9], 0.6 nM. The results for the “EC50 (read off the curve)” value in [13] and in assay [14] were ~0.1 nM and ~0.2 nM, respectively.

B3: NOV3839 (antibody, human IgG1, kappa, V domains shown)
VH: QVQLQESGGRLVRPGGSLRLSCAASGFIFTDYYMTWIRQAPGKGPEWIAFITSGGETTYYADSVKGRFTISRDNAKKSLFLQMYSLRADDTAVYYCVRAHFDIYQYDTRGDFTYYFDNWGLGTLVSVSS
VL: EIVMTQSPATLSVSPGERVTLSCRASQSVSSSLAWYQQKPGRAPRLLIYGASTRATGVPARFSGGGSGTDFTLTISSLQSEDFAVYYCHQYINWPPGDTFGQGTRLDIKR
notes: as for B1
Consider B3, for which, in assay [1], the “Virus neutralization EC50” value is 0.09 nM. The IC50 in [2] amounted to 1.6 nM; in assay [3], 0.17 nM; in [4] it was 0.37 nM; in assay [12], 8.6 nM; in assay [5], 3.6 nM; in [6] it was 0.088 nM. Also, the IC50 in [7] was determined as 0.085 nM. In addition, the equilibrium dissociation constant (Kd) stood at 0.59 nM with HBsAg AD serotype [8] and 2.4 nM with HBsAg AY serotype [9]. In addition, the “EC50 (read off the curve)” value in assay [15] and in [16] was ~0.1 nM throughout.

B4: NOV3840 (antibody, human IgG1, lambda, V domains shown)
VH: EVQLLESGGGLVQPGGSRRLSCAASGFTFSYYGMNWVRQAPGKGLEWVSGITNSGSITYYADSVKGRFSISRDNSKNTLFLQMNSLRAEDTAVYYCAKVGVRSSSGMWDLDYWGQGTLVTVSS
VL: SYVLTQPPSVSVAPGQTARLSCGGNNIGSKSLQWYQQKPGQAPVLVVNDDSDRPSGIPERFSGSNSGNTATLTISRVEAGDEADYYCQVWDTSSDHVVFGGGTKLTVLG
notes: Full human IgG1 (lambda) expressed in CHO cells
Consider B4, for which the “Virus neutralization EC50” value in [1] is 0.056 nM. The IC50 worked out at 0.023 nM in [2]; 0.022 nM in assay [3]; 0.016 nM in assay [4]; 0.012 nM in assay [5]; 0.01 nM in assay [6]; 0.013 nM in assay [7]. The values for the Kd with HBsAg AD serotype [8] and with HBsAg AY serotype [9] were 0.45 nM and 0.38 nM, respectively. For the same molecule, the “EC50 (read off the curve)” value in assay [17], in [18] and in assay [19] was ~0.02 nM throughout.

B5: NOV3832 (antibody, human IgG1, lambda, V domains shown)
VH: EMQVLESGGGLVQPGGSLRLSCAASGFTFDNYAMSWVRQVPGKGLEWVSSISGSGGSTYYADSVKGQFTISRDNSKNTLYLQMNSLRAEDTAVYYCAKSSILSGGHARVYGIDVWGQGTTVTVSS
VL: QSALTQPPSVSVAPGQTARITCGGNNIGSQSVHWYQQKPGQAPILVVYDDTDRPSGIPARFSGSSSGSTATLTIGRVEAGDEADYYCQVWDSSSDHVVFGGGTKLTVLS
notes: as for B4
In the case of B5, the “Virus neutralization EC50” value in [1] is 0.26 nM. The IC50 in assay [2] is 0.05 nM; in assay [3] it was 0.02 nM; in assay [4], 0.015 nM; in [12], > 67 nM; in assay [5], 0.99 nM; in [6] it was 0.034 nM. The molecule also displayed an IC50 in assay [7] of 0.034 nM. For the same molecule, the “binding of second antibody” value in the assay with HBsAg AD serotype [20] was 176 % of its binding as first antibody; with HBsAg AY serotype [21], 113 % of its binding as first antibody; in the assay with HBsAg AD serotype [22], 223 % of its binding as first antibody; with HBsAg AY serotype [23] it was 117 % of its binding as first antibody. In addition, the Kd with HBsAg AD serotype [8] came out at 0.22 nM; in the assay with HBsAg AY serotype [9], 0.4 nM. Also, the “EC50 (read off the curve)” value in assay [24] and in [25] was ~0.05 nM each time.

B6: NOV3833 (antibody, human IgG1, lambda, V domains shown)
VH: EMQVLESGGGLVQPGGSLRLSCAASGFTFHNYAMSWVRQVPGKGLEWVSSISGSGGSTYYADSVKGQFTISRDNSKNTLYLQMNSLRAEDTAVYYCAKSSILSGGHARVYGIDVWGQGTTVTVSS
VL: QSALTQPPSVSVAPGQTARITCGGNNIGSQSVHWYQQKPGQAPILVVYDDTDRPSGIPARFSGSSSGSTATLTIGRVEAGDEADYYCQVWDSSSDHVVFGGGTKLTVLS
notes: as for B4
For B6, in assay [1], the “Virus neutralization EC50” value came out at 0.27 nM. Further, the IC50 was 0.56 nM in [2]; 0.12 nM in assay [3]; 0.12 nM in assay [4]; > 67 nM in [12]; 2.8 nM in assay [5]; 0.025 nM in assay [6]. The molecule also displayed an IC50 in assay [7] of 0.036 nM. In addition, the results for the Kd with HBsAg AD serotype [8] and with HBsAg AY serotype [9] were 0.33 nM and 0.26 nM, respectively. The “EC50 (read off the curve)” value was ~0.04 nM in [26] and ~0.05 nM in assay [27].
